First the molecules themselves.
B1: Hu1210-3 (antibody, V domains shown)
VH: EVQLVESGGGLVKPGGSLRLSCAASGFTFSSYDMSWVRQAPGKSLEWVATISDGGGYIYYSDSVKGRFTISRDNAKNSLYLQMNSLRAEDTAVYICAREFGKRYALDYWGQGTTVTVSS
VL: DIQMTQSPSSLSASVGDRVTITCKASQDVTPAVAWYQQKPGKAPKLLIYSTSSRYTGVPSRFSGSGSGTDFTFTISSLQPEDIATYYCQQHYTTPLTFGQGTKLEIK
notes: Hu1210 VH.1b x Vk.1; human gamma 1 / kappa constant domains
B2: Hu1210-16 (antibody, V domains shown)
VH: B1 VH with K13Q, S44G, A88D, I95Y
VL: B1 VL
notes: Hu1210 VH.4a x Vk.1; human gamma 1 / kappa constant domains
B3: Hu1210-14 (antibody, V domains shown)
VH: B1 VH with V5L, K13Q, A75S, S78T
VL: B1 VL
notes: Hu1210 VH.3a x Vk.1; human gamma 1 / kappa constant domains
B4: Hu1210-8 (antibody, V domains shown)
VH: B1 VH with S44G, I95Y
VL: B1 VL with A43S
notes: Hu1210 VH.1a x Vk.1a; human gamma 1 / kappa constant domains
B5: Hu1210-22 (antibody, V domains shown)
VH: B1 VH with K13Q, A88D
VL: B1 VL with A43S
notes: Hu1210 VH.4b x Vk.1a; human gamma 1 / kappa constant domains
B6: H12x147(H3807) (bispecific antibody, human IgG1, kappa, N297A)
heavy chain of H12 (IgG) - linker - scFv of 147(H3807) (VL - linker - VH): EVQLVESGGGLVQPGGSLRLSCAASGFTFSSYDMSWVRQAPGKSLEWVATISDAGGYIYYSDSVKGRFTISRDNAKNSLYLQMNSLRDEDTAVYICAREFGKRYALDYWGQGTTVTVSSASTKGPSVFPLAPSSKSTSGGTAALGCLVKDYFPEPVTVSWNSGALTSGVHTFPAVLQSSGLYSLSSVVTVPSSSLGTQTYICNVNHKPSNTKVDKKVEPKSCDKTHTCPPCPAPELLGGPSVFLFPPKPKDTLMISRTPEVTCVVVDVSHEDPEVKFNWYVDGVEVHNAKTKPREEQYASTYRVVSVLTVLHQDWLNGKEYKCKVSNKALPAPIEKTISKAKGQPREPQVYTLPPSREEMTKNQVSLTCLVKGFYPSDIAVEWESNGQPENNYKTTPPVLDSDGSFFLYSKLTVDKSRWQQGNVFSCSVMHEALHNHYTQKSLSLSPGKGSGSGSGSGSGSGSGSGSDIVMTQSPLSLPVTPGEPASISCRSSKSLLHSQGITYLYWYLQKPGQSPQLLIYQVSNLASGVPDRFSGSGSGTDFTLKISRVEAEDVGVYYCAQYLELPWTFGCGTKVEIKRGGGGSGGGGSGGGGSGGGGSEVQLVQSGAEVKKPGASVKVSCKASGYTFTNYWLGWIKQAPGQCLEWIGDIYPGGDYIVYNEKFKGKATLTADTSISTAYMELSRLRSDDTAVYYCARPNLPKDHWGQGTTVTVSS
light chain of H12: DIQMTQSPSSLSASVGDRVTITCKASQDVTPAVAWYQQKPGKAPKLLIYSTSSRYTGVPSRFSGSGSGTDFTFTISSLQPEDIATYYCQQHYTTPLTFGQGTKLEIKRTVAAPSVFIFPPSDEQLKSGTASVVCLLNNFYPREAKVQWKVDNALQSGNSQESVTEQDSKDSTYSLSSTLTLSKADYEKHKVYACEVTHQGLSSPVTKSFNRGEC
B7: B6x147(H3807) (bispecific antibody, human IgG1, kappa, N297A)
heavy: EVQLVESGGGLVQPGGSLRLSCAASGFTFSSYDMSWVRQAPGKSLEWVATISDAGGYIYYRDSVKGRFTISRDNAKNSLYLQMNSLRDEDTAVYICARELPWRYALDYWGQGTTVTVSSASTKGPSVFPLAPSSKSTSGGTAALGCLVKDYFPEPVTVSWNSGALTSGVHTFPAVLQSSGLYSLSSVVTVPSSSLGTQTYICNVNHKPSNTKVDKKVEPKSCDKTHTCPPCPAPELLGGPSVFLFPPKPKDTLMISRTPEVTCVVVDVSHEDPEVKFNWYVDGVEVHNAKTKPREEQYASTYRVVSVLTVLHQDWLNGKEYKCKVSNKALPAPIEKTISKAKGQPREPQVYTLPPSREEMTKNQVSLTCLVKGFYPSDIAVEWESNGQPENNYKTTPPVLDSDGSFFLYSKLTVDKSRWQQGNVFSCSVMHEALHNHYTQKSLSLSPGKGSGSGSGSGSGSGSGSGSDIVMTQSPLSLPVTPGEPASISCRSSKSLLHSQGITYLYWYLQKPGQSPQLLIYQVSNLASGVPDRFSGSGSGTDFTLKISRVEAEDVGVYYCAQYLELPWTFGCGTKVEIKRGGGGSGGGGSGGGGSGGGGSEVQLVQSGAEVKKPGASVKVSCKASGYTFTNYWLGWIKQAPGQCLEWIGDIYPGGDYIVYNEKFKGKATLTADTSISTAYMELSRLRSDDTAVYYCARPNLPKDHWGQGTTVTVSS
light: B6 light chain of H12
B8: Hu1210-13 (antibody, V domains shown)
VH: B1 VH with V5L, K13Q, S44G, A49S, A75S, S78T, I95Y
VL: B1 VL
notes: Hu1210 VH.3 x Vk.1; human gamma 1 / kappa constant domains
B9: Hu1210-15 (antibody, V domains shown)
VH: B1 VH with K13Q, S44G, A49S, A88D, I95Y
VL: B1 VL
notes: Hu1210 VH.4 x Vk.1; human gamma 1 / kappa constant domains
B10: 147xH12 (bispecific antibody, human IgG4 S228P, kappa)
heavy: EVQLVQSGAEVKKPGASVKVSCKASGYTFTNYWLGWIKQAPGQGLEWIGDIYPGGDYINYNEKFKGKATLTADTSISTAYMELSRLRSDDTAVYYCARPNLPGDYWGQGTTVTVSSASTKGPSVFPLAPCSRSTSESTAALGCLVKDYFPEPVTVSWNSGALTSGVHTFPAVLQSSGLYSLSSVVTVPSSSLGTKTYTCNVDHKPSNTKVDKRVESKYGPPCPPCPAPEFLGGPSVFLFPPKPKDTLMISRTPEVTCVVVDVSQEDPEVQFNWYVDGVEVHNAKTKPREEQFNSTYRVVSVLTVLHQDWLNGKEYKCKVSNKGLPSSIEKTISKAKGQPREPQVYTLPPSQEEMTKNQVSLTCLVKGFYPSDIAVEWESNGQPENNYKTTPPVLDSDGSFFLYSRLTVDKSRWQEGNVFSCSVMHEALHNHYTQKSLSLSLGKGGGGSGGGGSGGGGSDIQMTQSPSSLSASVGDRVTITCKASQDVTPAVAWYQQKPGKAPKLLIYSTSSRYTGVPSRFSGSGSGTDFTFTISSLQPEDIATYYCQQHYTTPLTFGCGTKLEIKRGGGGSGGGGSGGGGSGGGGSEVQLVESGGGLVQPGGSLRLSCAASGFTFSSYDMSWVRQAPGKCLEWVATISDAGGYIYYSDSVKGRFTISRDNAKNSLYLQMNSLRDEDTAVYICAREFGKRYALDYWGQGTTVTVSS
light: DIVMTQSPLSLPVTPGEPASISCRSSKSLLHSNGITYLYWYLQKPGQSPQLLIYQVSNLASGVPDRFSGSGSGTDFTLKISRVEAEDVGVYYCAQNLELPWTFGGGTKVEIKRTVAAPSVFIFPPSDEQLKSGTASVVCLLNNFYPREAKVQWKVDNALQSGNSQESVTEQDSKDSTYSLSSTLTLSKADYEKHKVYACEVTHQGLSSPVTKSFNRGEC
notes: also called A3L1
B11: 147(H3807)xB6 (bispecific antibody, human IgG4 S228P, kappa)
heavy: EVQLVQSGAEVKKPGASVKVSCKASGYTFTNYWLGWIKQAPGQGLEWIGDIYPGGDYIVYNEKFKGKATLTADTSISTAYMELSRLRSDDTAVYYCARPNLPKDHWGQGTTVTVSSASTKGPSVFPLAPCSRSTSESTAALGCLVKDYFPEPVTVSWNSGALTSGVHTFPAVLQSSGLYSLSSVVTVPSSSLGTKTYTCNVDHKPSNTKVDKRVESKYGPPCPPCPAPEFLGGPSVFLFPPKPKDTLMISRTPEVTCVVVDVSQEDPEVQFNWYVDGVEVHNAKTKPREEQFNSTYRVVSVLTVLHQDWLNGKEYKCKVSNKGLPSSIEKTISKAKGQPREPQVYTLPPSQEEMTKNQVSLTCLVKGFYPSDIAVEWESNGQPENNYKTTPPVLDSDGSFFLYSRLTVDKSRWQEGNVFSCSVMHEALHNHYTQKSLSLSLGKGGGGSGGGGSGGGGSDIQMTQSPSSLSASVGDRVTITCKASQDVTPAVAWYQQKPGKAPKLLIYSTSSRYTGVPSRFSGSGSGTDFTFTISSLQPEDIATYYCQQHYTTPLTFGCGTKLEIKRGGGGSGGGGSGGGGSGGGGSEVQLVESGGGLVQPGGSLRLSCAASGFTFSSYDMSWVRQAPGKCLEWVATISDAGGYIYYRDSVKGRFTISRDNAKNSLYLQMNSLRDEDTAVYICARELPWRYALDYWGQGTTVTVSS
light: B10 light with N33Q, N96Y

The results in this text go back to patent publication US20220363763A1 (ABL BIO, published 2022).

Where a chain is given by its changes, count along the chain named.

T1 sequence (Q9NZQ7 19-290): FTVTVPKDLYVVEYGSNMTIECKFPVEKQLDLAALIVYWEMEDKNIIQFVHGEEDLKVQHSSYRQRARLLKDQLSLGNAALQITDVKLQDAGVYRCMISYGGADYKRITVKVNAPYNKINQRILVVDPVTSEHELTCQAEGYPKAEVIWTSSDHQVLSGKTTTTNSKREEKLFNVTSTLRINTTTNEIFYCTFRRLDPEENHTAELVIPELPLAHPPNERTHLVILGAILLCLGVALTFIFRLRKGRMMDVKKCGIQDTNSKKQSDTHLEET
T5 sequence (Q9NZQ7 19-239 limits assumed): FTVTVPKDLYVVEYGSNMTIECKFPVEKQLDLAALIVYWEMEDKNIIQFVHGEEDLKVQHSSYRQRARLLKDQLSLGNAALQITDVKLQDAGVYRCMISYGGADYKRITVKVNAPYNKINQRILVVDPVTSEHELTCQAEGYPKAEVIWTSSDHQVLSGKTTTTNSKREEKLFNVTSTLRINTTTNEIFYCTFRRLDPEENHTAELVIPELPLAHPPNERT
T4 sequence (Q9NZQ7 19-239 limits assumed): as above
T2 sequence (Q9NZQ7 19-239 limits assumed): as above

One experiment concerns the target T1, human PD-L1 expressed on mammalian cells (human, UniProt Q9NZQ7 19-290).
T1 construct: whole, on cells; also called PDL1-CHOK1 cells; PDL1-Raji cells
Nature of the experiment: FACS receptor blocking on PDL1-CHOK1 cells, competitor Bio-PD1 (30 µg/ml). Here is the method: To evaluate the blocking effect of humanized antibodies on human PD-L1 expressed on mammalian cells to bind to its receptor PD-1, the FACS-based receptor blocking assay was employed. Briefly, PDL1-CHOK1 cells were firstly incubated with 3-fold serious diluted HL1210-3 mouse mAb starting at 20 μg/ml at RT for 1 hour. After wash by FACS buffer (PBS with 2% FBS), the biotin-labeled huPD-1 were added to each well and incubated at RT for 1 hour. Then, the Streptavidin-PE was added to each well for 0.5 hour post twice wash with FACS buffer. The mean florescence intensity (MFI) of PE was evaluated by FACSAriaIII.
The molecule B1 registered a TOP of 84.3.

As for B2, the TOP worked out at 88.

As to B3, the TOP came to 79.6.

The molecule B4 came in with a TOP of 86.3.

On to B5, for which the TOP turned out to be 85.8.

The next experiment addresses T2, human PD-L1-Fc protein (human, UniProt Q9NZQ7 19-239).
T2 construct: Coated on ELISA plates; also called huPD-L1; not shown: Fc part
The experiment can be described thus: ELISA on coated human PD-L1-Fc, panel PD-L1. An excerpt: To evaluate the binding activity to PD-L1 and LAG3 of the bispecific antibodies (BsAb; H12x147 and 147xH12) prepared in Example 3, the BsAb were subjected to ELISA test.
Turning to B6, the “EC50 (read off the curve)” value was roughly 1 nM.

Turning to B7, the “EC50 (read off the curve)” value was roughly 0.3 nM.

In another experiment the target is T1, human PD-L1 expressed on mammalian cells. The experiment can be described thus: flow cytometry (MFI) on PDL1-CHOK1 cells; EC50 table has no unit, x axis Antibodies(nM). Here is the method:
(§1) To evaluate the antigen binding property, the humanized antibodies were analyzed for its binding to mammalian expressed PD-L1 by FACS. Briefly, PDL1-CHOK1 cells were firstly incubated with 5-fold serious diluted humanized antibodies starting at 2 μg/ml at RT for 1 hour. After wash by FACS buffer (PBS with 2% FBS), the alexa 488-anti-human IgG antibody was added to each well and incubated at RT for 1 hour. The MFI of Alexa 488 was evaluated by FACSAriaIII.
In turn, B2 showed an EC50 of 1.41 nM.

In turn, B3 registered an EC50 of 1.46 nM.

Regarding B8, the EC50 is 1.57 nM.

B9 registered an EC50 of 2.04 nM.

The target in the next experiment is T2, human PD-L1-Fc protein. The experiment can be described thus: ELISA on coated human PD-L1-Fc; EC50 table has no unit, x axis Ab(nM). Here is the method: (§2) To evaluate the antigen binding activity, the humanized antibodies were subjected to ELISA test. Briefly, microtiter plates were coated with human PD-L1-Fc protein at 0.1 μg/ml in PBS, 100 μl/well at 4° C. overnight, then blocked with 100 μl/well of 5% BSA. Five-fold dilutions of humanized antibodies starting from 10 μg/ml were added to each well and incubated for 1-2 hours at RT. The plates were washed with PBS/Tween and then incubate with […] antibody conjugated with Horse Radish Peroxidase (HRP) for 1 hour at RT. After washing, the plates were developed with TMB substrate and analyzed by spectrophotometer at OD 450-630 nm.
B1 gave an EC50 of 0.186 nM.

Another experiment has as its target T2, human PD-L1-Fc protein. The experiment is described as above. The source holds these as a separate data set. On the procedure:
as §2
As for B4, a half-maximal response (EC50) required 0.186 nM.

Another experiment deals with T2, human PD-L1-Fc protein. Described as above. This is another data set of the same source. On the procedure: as §2
On to B2, for which it took 0.179 nM to reach a half-maximal effect (EC50).

As to B3, a half-maximal response (EC50) required 0.163 nM.

In turn, B8 yielded an EC50 of 0.187 nM.

On to B9, for which a half-maximal effect (EC50) was put at 0.187 nM.

A further experiment concerns the target T3, human LAG3 (construct not stated) (human, UniProt P18627 23-450, limits assumed).
T3 construct: also called human LAG3 protein; antigen
T3 sequence (looked up): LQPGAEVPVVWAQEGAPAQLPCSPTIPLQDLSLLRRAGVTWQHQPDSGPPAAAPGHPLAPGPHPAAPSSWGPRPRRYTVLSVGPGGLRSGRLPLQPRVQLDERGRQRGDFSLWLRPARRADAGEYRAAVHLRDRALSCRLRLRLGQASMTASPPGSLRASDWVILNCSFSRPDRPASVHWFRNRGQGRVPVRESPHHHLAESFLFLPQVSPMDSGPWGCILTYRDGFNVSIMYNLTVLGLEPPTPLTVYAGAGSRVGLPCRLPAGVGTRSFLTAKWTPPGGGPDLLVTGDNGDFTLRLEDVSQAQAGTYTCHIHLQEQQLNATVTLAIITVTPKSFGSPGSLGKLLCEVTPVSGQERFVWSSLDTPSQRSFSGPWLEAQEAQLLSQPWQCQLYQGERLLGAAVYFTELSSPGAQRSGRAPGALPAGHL
Nature of the experiment: SPR Biacore, capture method. Here is the method: (§3) The binding affinities of bispecific antibodies PD-L1 and LAG3 of the bispecific antibodies (BsAb; 147xH12, 147H3807xB6 and B6x147H3807) prepared in Example 3 to PD-L1 protein and human LAG3 protein were tested with BIACORE™ using a capture method.
B10 came in with an equilibrium dissociation constant (Kd) of 13.5 nM.

As for B11, the Kd worked out at 1.63 nM.

Molecule B7 had a Kd of 8.87 nM.

A further experiment concerns the target T4, human PD-L1 (construct not stated) (human, UniProt Q9NZQ7 19-239, limits assumed).
T4 construct: also called B7-H1 (PD-L1); PD-L1 protein
Nature of the experiment: SPR Biacore, capture method. On the procedure: as §3
On to B10, for which binding was characterised by a dissociation constant (Kd) of 27.4 nM.

In turn, B11 returned a Kd of 5.94 nM.

As to B7, the Kd came out at 1.18 nM.

In another experiment the target is T2, human PD-L1-Fc protein. The experiment can be described thus: ELISA on coated human PD-L1-Fc; EC50 table has no unit, x axis Ab(nM). The source holds these as a separate data set. Here is the method: as §2
Regarding B5, the EC50 was 0.148 nM.

The target in a further experiment is T4, human PD-L1 (construct not stated). Nature of the experiment: BLI Octet Red 96, affinity ranking. An excerpt:
To explore the binding kinetics of the humanized antibody, this example performed the affinity ranking by using Octet Red 96.
As for B1, the Kd was 2.64 nM, the koff is 0.000228 s⁻¹ and the kon was determined as 86200 M⁻¹ s⁻¹.

The molecule B2 yielded a Kd of 3.14 nM, a koff of 0.000264 s⁻¹ and a kon of 84100 M⁻¹ s⁻¹.

In turn, B3 had a Kd of 2.34 nM, a koff of 0.000197 s⁻¹ and a kon of 84100 M⁻¹ s⁻¹.

B8 showed a Kd of 4.36 nM, a koff of 0.000366 s⁻¹ and a kon of 83800 M⁻¹ s⁻¹.

For B9, the Kd is 4.45 nM, the koff was found to be 0.00035 s⁻¹ and the kon is 78700 M⁻¹ s⁻¹.

The molecule B4 came in with a Kd of 1.64 nM, a koff of 0.000127 s⁻¹ and a kon of 77200 M⁻¹ s⁻¹.

The molecule B5 returned a Kd of 2.56 nM, a koff of 0.00023 s⁻¹ and a kon of 90000 M⁻¹ s⁻¹.

Another experiment has as its target T1, human PD-L1 expressed on mammalian cells. Nature of the experiment: flow cytometry (MFI) on PDL1-CHOK1 cells; EC50 table has no unit, x axis Antibodies(nM). This is another data set of the same source. On the procedure: as §1
Turning to B5, the EC50 was found to be 1.17 nM.

The target is the same in another experiment. The description is as above. The source holds these as a separate data set. Here is the method: as §1
The molecule B1 showed a half-maximal effective concentration (EC50) of 1.37 nM.

The molecule B4 registered an EC50 of 1.23 nM.

A further experiment concerns the target T5, human PD-L1-his taq protein (human, UniProt Q9NZQ7 19-239, limits assumed).
T5 construct: also called recombinant PD-L1 protein; recombinant human PD-L1; not shown: his tag
Nature of the experiment: SPR Biacore T200, antibody captured, PD-L1-his injected. On the procedure: The binding of the humanized antibodies to recombinant PD-L1 protein (human PD-L1-his taq) was tested by BIACORE™ using a capture method. The HL1210-3 mouse mAb were captured using anti-mouse Fc antibody coated on a CM5 chip. A series dilution of human PD-L1-his taq protein was injected over captured antibody for 3 mins at a flow rate of […]. The antigen was allowed to dissociate for 900 s. All the experiments were carried out on a Biacore T200.
The molecule B2 showed a Kd of 0.672 nM, a koff of 6.7e-05 s⁻¹ and a kon of 99800 M⁻¹ s⁻¹.

B3 registered a Kd of 0.435 nM, a koff of 5.29e-05 s⁻¹ and a kon of 122000 M⁻¹ s⁻¹.

In turn, B4 displayed a Kd of 0.767 nM, a koff of 7.17e-05 s⁻¹ and a kon of 93500 M⁻¹ s⁻¹.
